Source: paper PMC5802837, “Lymphocyte-specific protein 1 regulates mechanosensory oscillation of podosomes and actin isoform-based actomyosin symmetry breaking” (Nature Communications, 2018)

What was measured:
Test in all cases: co-IP; anti-GFP immunoprecipitation (µMACS anti-GFP Microbeads) from lysates of macrophages expressing GFP-fused constructs (500 mM NaCl, 2% Triton X-100, 50 mM Tris-HCl pH 8.0), washes with RIPA and high-salt RIPA; GFP alone as control; western blot of endogenous partners, densitometry
[1] = target: GFP-fused full length LSP1 (human) (UniProt P33241)
[2] = target: supervillin construct SV1-830-GFP (UniProt O46385)
[3] = target: T1, supervillin construct SV1-830-GFP (UniProt O46385-2 1-830); conditions: partners not purified
T1 construct: supervillin, N-terminal region, residues 1-830; as far as recalled the Luna laboratory constructs are bovine supervillin; also called GFP-SV1-830; GFP-supervillin 1-830; source: primary human macrophages, transfected, in lysate

Molecule: α-cardiac actin, endogenous (from UniProt P68032 1-377) (natural protein)
- coprecipitated α-cardiac actin relative to SV1-830-GFP [1]: 0.33 fold

Molecule: Ser19 phosphorylated myosin light chain (pMLC), endogenous (from UniProt P24844 1-172) (natural protein)
- coprecipitated amount relative to LSP1-GFP [2]: 9 fold

B1: myosin IIA, endogenous (natural protein, UniProt P35579 1-1960, looked up)
chain: MAQQAADKYLYVDKNFINNPLAQADWAAKKLVWVPSDKSGFEPASLKEEVGEEAIVELVENGKKVKVNKDDIQKMNPPKFSKVEDMAELTCLNEASVLHNLKERYYSGLIYTYSGLFCVVINPYKNLPIYSEEIVEMYKGKKRHEMPPHIYAITDTAYRSMMQDREDQSILCTGESGAGKTENTKKVIQYLAYVASSHKSKKDQGELERQLLQANPILEAFGNAKTVKNDNSSRFGKFIRINFDVNGYIVGANIETYLLEKSRAIRQAKEERTFHIFYYLLSGAGEHLKTDLLLEPYNKYRFLSNGHVTIPGQQDKDMFQETMEAMRIMGIPEEEQMGLLRVISGVLQLGNIVFKKERNTDQASMPDNTAAQKVSHLLGINVTDFTRGILTPRIKVGRDYVQKAQTKEQADFAIEALAKATYERMFRWLVLRINKALDKTKRQGASFIGILDIAGFEIFDLNSFEQLCINYTNEKLQQLFNHTMFILEQEEYQREGIEWNFIDFGLDLQPCIDLIEKPAGPPGILALLDEECWFPKATDKSFVEKVMQEQGTHPKFQKPKQLKDKADFCIIHYAGKVDYKADEWLMKNMDPLNDNIATLLHQSSDKFVSELWKDVDRIIGLDQVAGMSETALPGAFKTRKGMFRTVGQLYKEQLAKLMATLRNTNPNFVRCIIPNHEKKAGKLDPHLVLDQLRCNGVLEGIRICRQGFPNRVVFQEFRQRYEILTPNSIPKGFMDGKQACVLMIKALELDSNLYRIGQSKVFFRAGVLAHLEEERDLKITDVIIGFQACCRGYLARKAFAKRQQQLTAMKVLQRNCAAYLKLRNWQWWRLFTKVKPLLQVSRQEEEMMAKEEELVKVREKQLAAENRLTEMETLQSQLMAEKLQLQEQLQAETELCAEAEELRARLTAKKQELEEICHDLEARVEEEEERCQHLQAEKKKMQQNIQELEEQLEEEESARQKLQLEKVTTEAKLKKLEEEQIILEDQNCKLAKEKKLLEDRIAEFTTNLTEEEEKSKSLAKLKNKHEAMITDLEERLRREEKQRQELEKTRRKLEGDSTDLSDQIAELQAQIAELKMQLAKKEEELQAALARVEEEAAQKNMALKKIRELESQISELQEDLESERASRNKAEKQKRDLGEELEALKTELEDTLDSTAAQQELRSKREQEVNILKKTLEEEAKTHEAQIQEMRQKHSQAVEELAEQLEQTKRVKANLEKAKQTLENERGELANEVKVLLQGKGDSEHKRKKVEAQLQELQVKFNEGERVRTELADKVTKLQVELDNVTGLLSQSDSKSSKLTKDFSALESQLQDTQELLQEENRQKLSLSTKLKQVEDEKNSFREQLEEEEEAKHNLEKQIATLHAQVADMKKKMEDSVGCLETAEEVKRKLQKDLEGLSQRHEEKVAAYDKLEKTKTRLQQELDDLLVDLDHQRQSACNLEKKQKKFDQLLAEEKTISAKYAEERDRAEAEAREKETKALSLARALEEAMEQKAELERLNKQFRTEMEDLMSSKDDVGKSVHELEKSKRALEQQVEEMKTQLEELEDELQATEDAKLRLEVNLQAMKAQFERDLQGRDEQSEEKKKQLVRQVREMEAELEDERKQRSMAVAARKKLEMDLKDLEAHIDSANKNRDEAIKQLRKLQAQMKDCMRELDDTRASREEILAQAKENEKKLKSMEAEMIQLQEELAAAERAKRQAQQERDELADEIANSSGKGALALEEKRRLEARIAQLEEELEEEQGNTELINDRLKKANLQIDQINTDLNLERSHAQKNENARQQLERQNKELKVKLQEMEGTVKSKYKASITALEAKIAQLEEQLDNETKERQAACKQVRRTEKKLKDVLLQVDDERRNAEQYKDQADKASTRLKQLKRQLEEAEEEAQRANASRRKLQRELEDATETADAMNREVSSLKNKLRRGDLPFVVPRRMARKGAGDGSDEEVDGKADGAEAKPAE
notes: non-muscle myosin IIA heavy chain, human, precipitated and detected with anti-myosin IIA antibodies; also called non-muscle myosin IIA; source: endogenous, primary human macrophages (lysate or fixed cells)
- coprecipitated amount relative to LSP1-GFP [3]: 1.6 fold
